# Reference: US9121022B2, “Method for controlling herbicide-resistant plants” (priority 2010, dated 2015)
# B1: HPPD anti-sense ssDNA oligonucleotides: 8 HPPD anti-sense ssDNA oligonucleotides (SEQ ID NOS:141-148) (nucleic acid)
# antisense 1: TCCGTAGCTTACATACCGAAG
# antisense 2: TCCAAGTGAATAGGAGAAACA
# antisense 3: AGCAGCTTCTGCGTCTTCTAC
# antisense 4: ACAGCACGCACGCCAAGACCG
# antisense 5: CGATGTAAGGAATTTGGTAAA
# antisense 6: CGAGGGGATTGCAGCAGAAGA
# antisense 7: GTAGGAGAATACGGTGAAGTA
# antisense 8: GACCCCAAGAAAATCGTCTGC
# modifications: DNA, backbone and methylation of C not given here
# System: Glyphosate-sensitive Palmer amaranth (Amaranthus palmeri) plants
# Experiment: HPPD, PPO and TIF anti-sense ssDNA with mesotrione, fomesafen or atrazine, plant height (Example 28, Tables 18 and 19)
# Format: in vivo
# Conditions: four days after herbicide treatment
# Description: The herbicidal activity of ssDNA polynucleotides that target the enzymes […] and protoporphyrinogen oxidase (PPO), and a transcription initiation factor (TIF), and their effect on the herbicide activity when used in combination with the herbicides mesotrione, fomesafen, and atrazine in Palmer amaranth was investigated.
# Glyphosate-sensitive Palmer amaranth (Amaranthus palmeri) plants were grown in 4-inch square pots with Sun Gro® Redi-Earth seedling mix containing 3.5 kg/cubic meter Osmocote® 14-14-14 fertilizer in a greenhouse with 14 h photoperiod and a daytime temperature of 30 degrees Celsius and night temperature of 20 degrees Celsius. The plants were sub-irrigated as necessary.
# Some plants were left untreated and were used as controls. […] Crop oil concentrate (COC) at 1% was added to all herbicide treatments.
# Plant height was determined at four days after herbicide treatment. Data were collected from one experiment with four replications per treatment.
molecule,measurement,value
B1,growth reduction relative to the buffer-surfactant control,32%
